Values joined by “and” are separate entries in the source; they are usually repeats but may differ in a detail not shown here. Equal entries are not always repeated.
B1: wt TaLcc1: Wild type laccase purified from Thielavia arenaria ALKO4197 culture supernatant (protein)
chain: MKSWAAAVALMVGILSPHAAAAPPANPVQRDMLQVLEARQSGPTCNTPSNRACWTNGFDINTDYEVSTPNTGRTVAYQLTLTEKENWIGPDGVLKNVVMLVNDKIIGPTIRANWGDNIEVTVINNLKTNGTSMHWHGLRQLGNVFNDGANGVTECPIPPKGGRKTYKFRATQYGTSWYHSHFSAQYGNGVVGTIQIDGPASLPYDIDLGVFPLMDYYYRSADELVHFTQSNGAPPSDNVLFNGTARHPETGAGQWYNVTLTPGKRHRLRIINTSTDNHFQVSLVGHNMTVIATDMVPVNAFTVSSLFLAVGQRYDVTIDANSPVGNYWFNVTFGDGLCGSSNNKFPAAIFRYQGAPATLPTDQGLPVPNHMCLDNLNLTPVVTRSAPVNNFVKRPSNTLGVTLDIGGTPLFVWKVNGSAINVDWGKPILDYVMSGNTSYPVSDNIVQVDAVDQWTYWLIENDPTNPIVSLPHPMHLHGHDFLVLGRSPDELPSAGVRHIFDPAKDLPRLKGNNPVRRDVTMLPAGGWLLLAFKTDNPGAWLFHCHIAWHVSGGLSVDFLERPNDLRTQLNSNAKRADRDDFNRVCREWNAYWPTNPFPKIDSGLRHRFVEESEWMVR
modifications: Thielavia arenaria ALKO4197; (1)..(617) Deduced amino acid sequence of Thielavia arenaria ALKO4197 laccase 1 (Ta Lcc1)
notes: Wild type laccase purified from Thielavia arenaria ALKO4197 culture supernatant

Assays:
[1] = test system: Thielavia wild type laccase (wt TaLcc1); conditions: pH 4.5
[2] = test system: recombinant Thielavia arenaria TaLcc1 laccase (rTaLcc1); type: biochemical
Description: The inhibition effect of different compounds on the activity of the recombinant TaLcc1 laccase was determined as described in Example 2.

[3] = target: T1, Thielavia arenaria ALKO4197 laccase TaLcc1, wild type (wt TaLcc1), SEQ ID NO: 12 (Canariomyces arenarius, UniProt F6N9E7); assay: biochemical; conditions: pH 4.5, read-out: Inhibition (%) of laccase
T1 construct: predicted mature residues 22-604

[4] = Specific activity on ABTS; type: biochemical; conditions: 25 mM succinate buffer pH 4.5, 25° C.
Description: The activity assay was carried out in accordance with the method developed by Niku-Paavola et al. (1988). The sample was diluted with 0.025 M succinate buffer, pH 4.5. […] The activity is expressed as nano katals.
(§1) Specific activities of the purified Thielavia laccase were determined towards different laccase substrates.

Specific activity on DMP = type: biochemical; conditions: 25 mM MES buffer, pH 5.5
Description: as §1

[5] = Specific activity on syringaldazine; type: biochemical; conditions: 25 mM MES buffer, pH 5.5
Description: as §1

[6] = Specific activity on guaiacol; type: biochemical; conditions: 25 mM MES buffer, pH 5.5
Description: as §1

[7] = Isoelectric focusing (pI); type: physicochemical; conditions: pH range 3-9, ABTS staining
Description: Molecular weight of the Thielavia arenaria laccase (wt TaLcc1) was determined on SDS-PAGE according to Laemmli (1970). The gels used in the SDS-PAGE analysis were ready-made 12% Tris HCl gels (BioRad). Protein bands were visualized by staining with Coomassie Brilliant Blue (R 350; Pharmacia) and compared with molecular weight markers (Prestained Protein Marker Broad Range #7708S; New England BioLabs, Beverly, Mass.). The molecular weight of the Thielavia areanaria laccase was approximately 80 kDa. The isoelectric point of the laccase was determined with isoelectric focusing within the pH range of 3-9 (Pharmalyte IEF, Pharmacia) on a LKB 2117 Multiphor II Electrophoresis System (LKB Pharmacia, Bromma, Sweden) according to the manufacturer's instructions.
The purified recombinant Thielavia arenaria TaLcc1 was characterized in terms of pH optimum, thermal stability, and pI as described in Example 2. The molecular weight was determined by MALDI-TOF mass spectrometry on a Ultraflex™ time-of-flight instrument (BrukerDaltonics, Germany) as previously described (Palonen et al., 2003). The redox potential of TaLcc1 was also determined with a combined Pt-AgCl/KCl microelectrode at pH 5.0 according to Sigoillot et al (2004)

Molecule | Inhibition(%) wt TaLcc1 [1] | Inhibition (%) of laccase rTaLcc1 [2] [%] | inhibition at 10000 µM [3] [%] | Specific activity on ABTS [4] [nkat/mg] | Specific activity on DMP (Specific activity on DMP) [nkat/mg] | Specific activity on syringaldazine [5] [nkat/mg] | Specific activity on guaiacol [6] [nkat/mg] | pI [7]
[Cl-].[Na+] [NaCl] | 42% and 35% | – | – | – | – | – | – | –
O=C(O)CN(CCN(CC(=O)O)CC(=O)O)CC(=O)O [EDTA] | 0% | 5 | 0 | – | – | – | – | –
B1 | – | – | – | 1020 | 260 | 490 | 63 | 5.5-6.9
